In patent US20240092920A1 (KEYMED BIOSCIENCES, published 2024):
Substitutions are numbered along the chain they refer to.

T1: recombinant protein of human IL-4Rα extracellular region (human, UniProt P24394 26-232)
T1 construct: range 26-232; Made in HEK293-6E cells, purified on nickel chelate; Used biotin-labeled on SA probes in the Fortebio assays and unlabeled as ELISA coat; also called hIL-4Rα; IL-4Rα recombinant protein
T1 sequence: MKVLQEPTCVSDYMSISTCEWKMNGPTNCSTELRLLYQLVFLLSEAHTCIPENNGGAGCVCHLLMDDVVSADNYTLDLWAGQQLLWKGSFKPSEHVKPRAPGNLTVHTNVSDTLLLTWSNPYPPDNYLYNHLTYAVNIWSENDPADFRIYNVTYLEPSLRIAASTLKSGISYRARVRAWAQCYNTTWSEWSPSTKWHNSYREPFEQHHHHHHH

B1: Clone 24G10 (antibody, V domains shown)
VH: EVKLVESGGGLVKPGGSLKLSCAASGFTFSRYAMSWVRQTPEKRLEWVATISSGGSYTNYSDSVKGRFTISRDNVKNTLYLQMSSLKSEDSAMYYCARATARATEFAYWGQGTLVTVSA
VL: DIQMTQSTSSLSASLGDRVTISCRASQDISNYLNWYQQKPDGTVKLLIYYTSRLYSGVPSRFSGSGSGTDYSLTISNLEQEDIATYFCQQGNTLPPTFGGGTKLEI
notes: Chimeric IgG: mouse variable regions on human heavy and light chain constant regions (section 6)
B2: Clone 25D6 (antibody, V domains shown)
VH: QVQLQQSGAELVKPGASVKMSCKASVNTFTGYNMHWVKQTPGQGLEWIGGLHPGNGDTSYNQKFKGKATLTADKSSNTAYMQLSSLTSEDSAVYYCALTTAGRAWFAYWGQGTLVTVSA
VL: DIQMTQSTSSLSASLGDRVTISCRASQDISNYLNWYQQKPDGTVKLLIYYTSRLHSGVPSRFSGSGSGTDYSLTISNLEQEDIATYFCQQGNTLPWTFGGGTKLEIK
notes: as for B1
B3: Clone 1D8 (antibody, V domains shown)
VH: B2 VH with K23T, S25T, V26G, T28I, V37I, K67R, N77S, T78S
VL: DIQMTQTTSSLSASLGDRVTISCRASQDISNYLNWYQQKPDGTVKLLIYYTSRLHSGVPSRFSGSGSGTDYSLTISNLEQEDIATYFCQQGNTLHTFGGGTKLEIK
notes: as for B1
B4: Clone 36F4 (antibody, V domains shown)
VH: B2 VH with T28I, G66D, K74R
VL: DIKMTQSTSSLSASLGDRVTISCRASQDISNYLNWYQQKPDGTVKLLIYYTSRLHSGVPSRFSGSGSGTDYSLTISNLEQEDIATYFCQQGNTLPPWTFGGGTKLEIK
notes: as for B1
B5: Clone 1A6 (antibody, V domains shown)
VH: B2 VH with A9T, V37I, T58S, K67R, A107P
VL: B2 VL with S7T, W96P
notes: as for B1
B6: Clone 31B9 (antibody, V domains shown)
VH: B2 VH with Q1E, T28I, G66D, K74R
VL: B2 VL
notes: as for B1
B7: Clone 34A2 (antibody, V domains shown)
VH: B2 VH with Q1E, T28I, G31S, K63N, N77S, L83V, S85N, A97V
VL: B2 VL
notes: as for B1
B8: Clone 25G9 (antibody, V domains shown)
VH: B2 VH with Q1E, Q5K, Q6E, T28I, G66D, K74R
VL: B2 VL with K103R
notes: as for B1
B9: Clone 34H11 (antibody, V domains shown)
VH: B2 VH with Q6E
VL: B2 VL with S7T, I83V
notes: as for B1
B10: Clone 35A7 (antibody, V domains shown)
VH: B2 VH with Q5K, K23T, V26G, T28I, T30S, V37I
VL: B2 VL with T5N, V44I, H55Y, Q80E, L94I, W96Y
notes: Chimeric IgG (section 6)
B11: Clone 2H1 (antibody, V domains shown)
VH: B2 VH with A9T, V37I, T58S, K67R, A107P
VL: B2 VL with T5I, S63R, W96L, G100A, I106L
notes: as for B1
B12: Clone 35D5 (antibody, V domains shown)
VH: B2 VH with Q5K
VL: B2 VL
notes: as for B1
B13: Clone 1H9 (antibody, V domains shown)
VH: B2 VH with T30A
VL: B2 VL with T5I
notes: as for B1

These binders were tested against T1, recombinant protein of human IL-4Rα … (assay: BLI (Fortebio), biotin-labeled hIL-4Rα on SA probe, antibody 50-3.125 ug/ml).
Experimental: PBS is added to any column of the 96-well plate, 100 ul/well, and the 96-well plate is placed in the probe holder cassette. When taking the probe, be careful to completely hang it on the holder to prevent the probe from touching the holder. The immobilized biotin-labeled hIL-4Rα is diluted to 5 ug/ml with PBS; a new 96-well plate is taken, and the diluted immobilized material is added column by column, 100 ul/well. […] A new 96-well plate is taken, and PBS is added to columns 1 and 2, 100 ul/well (the same buffer for both baseline and dissociation); the diluted immobilized material is added to column 3; the analyte diluted according to the series is added to column 4; 10 mM HCl (pH 1.9) is added to column 11; and PBS is added to column 12. The SA probe binds very strongly to the immobilized biotin material. When regenerated, the immobilized material is still bound to the probe, so it can be reused after immobilizing only once. Then the experimental method is set up in the Fortebio software, and then the experimental program is run for detection.

Kd [nM]	koff [s⁻¹]	kon [M⁻¹ s⁻¹]	Binder
0.94	2.37e-05	25300	B1
5.9	0.000157	26500	B2
8.06	0.000566	70100	B3
1.8	9.37e-05	50900	B4
11.3	0.000602	53000	B5
1.9	6.28e-05	33000	B6
< 0.001	< 1e-07	29000	B7
< 0.001	< 1e-07	37900	B8
6.6	0.000176	26900	B9
< 0.001	< 1e-07	24700	B10
5.27	0.000377	71600	B11
1.3	5.05e-05	38700	B12
8.9	0.000262	29300	B13
